Experiment [1] has as its system T47D-MUC1* xenograft tumors. The experiment is described as follows: T47D-MUC1* breast cancer xenograft. Type of experiment: in vivo, NOD/SCID mice. The note with it: intraperitoneal; MMAE ADCs 5-10 mg/kg Days 7, 14, 20; deruxtecan/exatecan ADCs 20 mg/kg weekly x7. As for the experimental part: (§1) For breast cancer xenografts, female NOD/SCID mice (weight 18-22 g, 6-8 weeks old, Charles River Laboratories) previously implanted with a 90-day release estrogen pellet (Innovative Research Laboratories) were subcutaneously injected under isoflurane anesthesia (ISOTHESIA, 250 ml (HENRY SCHEIN, NDC: 11695-6776-2) with one million luciferase-positive T47D breast cancer cells expressing low levels of MUC1*(ATCC) or one million luciferase-positive T47D-MUC1* cells overproducing MUC1* using a BD 26G Insulin Syringes with Detachable Needle (Fisher cat: 329652) or BD 28G Lo-Dose U-100 Insulin Syringes (Fisher cat: 329461).
(§2) Tumor volume was measured from bioluminescence images acquired with a Xenogen IVIS-Spectrum system (Perkin Elmer). Mice were injected […] into the scruff of the neck with 150 ul, 30 mg/mL, D-Luciferin (XenoLight™ D-Luciferin Potassium Salt; PerkinElmer P/N 122799), placed under isoflurane anesthesia, and photographed within 10 minutes of the Leciferin injection. Data was expressed graphically as Radiance (photons/sec) as a function of days post-tumor implantation.
(§3) Tumor mass was determined from tumors excised from mice receiving T47D cells on Day 95 and mice receiving T47D-MUC1* cells on Day 96. […]

Experiment [2] has as its system T47D xenograft tumors. The experiment can be described thus: T47D breast cancer xenograft. It counts as in vivo, NOD/SCID mice. The settings on record: intraperitoneal; MMAE ADCs 5-10 mg/kg Days 7, 14, 20; deruxtecan/exatecan ADCs 20 mg/kg weekly x7. As for the experimental part:
as §1, §2, §3

In experiment [3] the test system is T47D-MUC1*. The experiment can be described thus: PrestoBlue live/dead cell assay, T47D-MUC1*. It counts as cell-based, human. The settings on record: Presto Blue; 72-120 hour incubation. As for the experimental part: (§4) Another method of measuring the killing activity of ADCs against target cancer cells is to use the PrestoBlue live/dead cell assay (ThermoFisher). Target cancer cells were seeded in a black-walled, clear-bottom 96-well tissue culture plate at a density of 5000 cells/well (100 μL of a 50,000 cells/mL stock) and incubated overnight in a 37° C./5% CO2 incubator. ADCs were prepared as a 2× solution in corresponding cancer cell growth media and 100 μL of each concentration was added to target cancer cells. As a positive control (100% killing) cancer cells were treated with 1 μM Taxol instead of ADC. After 72 hour-120 hour incubation in a 37° C./5% CO2 incubator, cell viability was measure by fluorescence using the PrestoBlue HS assay (ThermoFisher). Briefly, after the incubation period, 20 μL of PrestoBlue HS solution was added. Fluorescence (Ex 560 nm/Em 590 nm) was recorded after 30-90 min. incubation using a Tecan plate reader. Percentage viability was determined by PrestoBlue HS staining and normalized to 1 μM taxol treated cells.
(§5) The normalized fluorescence values were imported into the graph program, Sigma Plot, data plotted as ADC concentration versus normalized fluorescence signal and curve fitted using a four-parameter Hill equation: f=y0+a*x^b/(c^b+x^b) to calculate IC50 values. IC50 values for the ADCs were generally consistent between the xCELLigence and Presto Blue assays.

Experiment [4] deals with T47D-MUC1* 15%. The experiment can be described thus: xCELLigence impedance cytotoxicity, T47D-MUC1* 15%. Type of experiment: cell-based, human. The settings on record: 40-120 hours incubation. The method, then:
(§6) An xCELLigence RTCA MP Instrument (Agilent) was used to assess real-time killing of target cancer cells). In the xCELLigence system, target cancer cells, which are adherent, are plated onto electrode array 96-well plates. Adherent cells insulate the electrode and increase the impedance. The number of adherent cancer cells is directly proportional to impedance. […] Therefore, increasing impedance reflects the growth of the cancer cells and decreasing impedance reflects the killing of the cancer cells.
(§7) Target Cancer cells (Table 9) were seeded onto a multi-electrode well plate at a density of 5000 cells/well (100 μL of a 50,000 cells/mL stock) and incubated for 24 hr in a 37° C./5% CO2 incubator. ADCs were prepared as a 2× solution in corresponding growth media and 100 μL of each concentration was added to target cells. As a positive control (100% cell killing) cells were treated with either 1% triton or 1 μM Taxol instead of ADC. After 40-120 hours incubation in a 37° C./5% CO2 incubator cell killing was assessed. In this assay, impedance is measured in real-time. When the adherent cancer cells are killed and come off the electrode surface, impedance (insulation) decreases.

The test system of experiment [5] is DU-145. The experiment is described as follows: PrestoBlue live/dead cell assay, DU-145. It counts as cell-based, human. The settings on record: Presto Blue; 72-120 hour incubation. The method, then: as §4, §5
The subject of experiment [6] is NCI-H1975. The experiment can be described thus: xCELLigence impedance cytotoxicity, NCI-H1975. The settings on record: xCELLigence; 40-120 hours incubation; read-out: IC50, NCI-H1975. Type of experiment: cell-based, human. The method, boiled down: (§8)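 Adherent target cells plated at 5000/well on electrode plates were grown 24 h, then exposed to serially diluted ADCs in growth medium at 37° C/5% CO2. Killing was followed as real-time impedance loss over 40-120 h, normalized to 1% triton or 1 μM Taxol as 100% kill.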

For experiment [7], the system named is T47D. The experiment is described as follows: PrestoBlue live/dead cell assay, T47D. Type of experiment: cell-based, human. The note with it: Presto Blue; 72-120 hour incubation. As for the experimental part:
as §4, §5

Experiment [8] concerns H1975. The experiment is described as follows: PrestoBlue live/dead cell assay, H1975. The note with it: Presto Blue; 72-120 hour incubation. Type of experiment: cell-based, human. As for the experimental part:
as §4, §5

Experiment [9] has as its system T47D. The experiment is described as follows: xCELLigence impedance cytotoxicity, T47D. Type of experiment: cell-based, human. The note with it: xCELLigence; 40-120 hours incubation; read-out: IC50, T47D. The gist of the method:
as §8

Experiment [10] concerns T47D-MUC1* 15%. The experiment is described as follows: PrestoBlue live/dead cell assay, T47D-MUC1* 15%. It counts as cell-based, human. The settings on record: Presto Blue; 72-120 hour incubation. The method, then:
as §4, §5

Experiment [11] deals with T47D-MUC1*. The experiment can be described thus: xCELLigence impedance cytotoxicity, T47D-MUC1*. It counts as cell-based, human. The note with it: xCELLigence; 40-120 hours incubation; read-out: IC50, T47D-MUC1*. As for the experimental part:
as §6, §7

For experiment [12], the system named is HPAF-II. The experiment is described as follows: xCELLigence impedance cytotoxicity, HPAF-II. It counts as cell-based, human. The settings on record: xCELLigence; 40-120 hours incubation; read-out: IC50, HPAF-II. As for the experimental part:
as §6, §7

For experiment [13], the system named is HPAFII. The experiment can be described thus: PrestoBlue live/dead cell assay, HPAFII. Type of experiment: cell-based, human. The note with it: Presto Blue; 72-120 hour incubation. The method, then:
as §4, §5

The subject of experiment [14] is DU-145. The experiment can be described thus: xCELLigence impedance cytotoxicity, DU-145. Type of experiment: cell-based, human. The note with it: 40-120 hours incubation. The method, then: as §6, §7
Experiment [15] deals with HPAFII-MUC1*. The experiment can be described thus: PrestoBlue live/dead cell assay, HPAFII-MUC1*. Type of experiment: cell-based, human. The settings on record: Presto Blue; 72-120 hour incubation. The method, then:
as §4, §5

The subject of experiment [16] is HPAF-II MUC1*. The experiment can be described thus: xCELLigence impedance cytotoxicity, HPAF-II MUC1*. The settings on record: xCELLigence; 40-120 hours incubation; read-out: IC50, HPAF-II MUC1*. It counts as cell-based, human. The method, then: as §6, §7

The text below walks through data of patent US20260137799A1, “ANTI-MUC1* ANTIBODY DRUG COMPLEXES AND USES THEREOF” (Minerva Biotechnologies Corporation, priority 2023, published 2026).

As usually defined, the IC50 is the concentration that gives 50% inhibition.

B1: C2 MC-PEG8-VA-PAB exatecan (conjugate, listed as Mus sp.)
heavy: EVQLEESGGGLVKPGGSLKLSCAASGFTFSGYAMSWVRQTPEKRLEWVATISSGGTYIYYPDSVKGRFTISRDNAKNTLYLQMSSLRSEDTAMYYCARLGGDNYYEYFDVWGAGTTVTVSSAKTTPPSVYAKTTPPSVYPLAPGSAAQTNSMVTLGCLVKGYFPEPVTVTWNSGSLSSGVHTFPAVLQSDLYTLSSSVTVPSSTWPSETVTCNVAHPASSTKVDKKIVPRDCGCKPCICTVPEVSSVFIFPPKPKDVLTITLTPKVTCVVVDISKDDPEVQFSWFVDDVEVHTAQTQPREEQFNSTFRSVSELPIMHQDWLNGKEFKCRVNSAAFPAPIEKTISKTKGRPKAPQVYTIPPPKEQMAKDKVSLTCMITDFFPEDITVEWQWNGQPAENYKNTQPIMDTDGSYFVYSKLNVQKSNWEAGNTFTCSVLHEGLHNHHTEKSLSHSPGK
light: DIVITQSTASLGVSLGQRATISCRASKSVSTSGYSYMHWYQQRPGQPPKLLIYLASNLESGVPARFSGSGSGTDFTLNIHPVEEEDAATYYCQHSRELPFTFGGGTKLEIKRADAAPTVSADAAPTVSIFPPSSEQLTSGGASVVCFLNNFYPKDINVKWKIDGSERQNGVLNSWTDQDSKDSTYSMSSTLTLTKDEYERHNSYTCEATHKTSTSPIVKSFNRNEC
modifications: MC-PEG8-VA-PAB-exatecan
notes: ADC: antibody C2 conjugated via MC-PEG8-VA-PAB linker to exatecan
B1: in [1], the “growth of T47D-MUC1* xenograft tumors” value was “inhibit the growth”. In addition, the “growth of T47D xenograft tumors” value in [2] was “inhibit the growth”. Further, the 50% inhibitory concentration (IC50) worked out at 8 nM in [3]; 20 nM in [4]; 160 nM in experiment [5]; 207 nM in experiment [6]; 153 nM in experiment [7]; 19 nM in experiment [8]. For the same molecule, the half-inhibitory concentration (IC50) in experiment [9] worked out at 112 nM; in experiment [10] it was 25 nM; in [11] it was 6.2 nM; in experiment [12], 86 nM; in [13] it was 180 nM; in experiment [14] it was 163 nM. Also, the IC50 worked out at 62 nM in [15] and 72 nM in experiment [16].
